Where “and” joins values, the source holds several entries; their conditions need not be identical. Equal values may be shown once. Entries after “also recorded” stand apart in the source; their conditions may differ. Read-outs that look alike come from different tables or passages of the source.
Columns and labels:
[1] = tested on: TF-induced clotting in human plasma; assay: Dilute prothrombin time (dPT) assay: TF-induced clotting of human plasma; assay type: biochemical; conditions: 1:4 dilution of Simplastin
Protocol: dPT assay was carried out using 1:4 dilution of Simplastin®. Closed square and closed triangle on the abscissa indicate the clotting times of the plasma supplemented with control buffer and 2 μg/ml FL-TFPI, respectively.
dPT assay was carried out using 1:40 dilution of Simplastin®. Closed square and closed triangle on the abscissa indicate the clotting times of the plasma supplemented with control buffer and 0.3 μg/ml FL-TFPI, respectively.
(§1) Rabbit brain thromboplastin (TF;Simplastin®) was diluted to varying degrees ranging from 1:4 to 1:50 with a buffer containing 12.5 mM CaCl2, 75 mM NaCl, 0.5 mg/ml bovine serum albumin, and 0.02% NaN3, for determination of TF-induced clotting time in human plasma. Fifty (50) μl of human plasma were mixed with 50 μl of DB, heparin, TFPI, or preformed complexes of heparin/TFPI in DB in the well of a Fibrometer at 37° for 1 min. Two hundred (200) μl of appropriately diluted thromboplastin reagent were then added and the time to clotting was determined.
(§2) The dPTs reported here are the average of 2 to 8 determinations, depending on the length of the clotting time. When the clotting time was short (<100 sec), the variations between determinations are small and 2-4 assay values were averaged for each data point. When the clotting time is long (>100 sec), the variations between determinations are larger and 5-8 assay values are averaged for each data point. […] The concentrations of heparin and TFPI are expressed as units or μg per ml of plasma, not as that in the final assay mixture.
In one-stage TF-induced plasma clotting assay, clotting time is dependent on the concentration of TF and the concentrations of anticoagulants present. […] In the absence of added anticoagulants, the addition of this concentration of TF caused the plasma to clot in 20 sec (closed square).

[2] = tested on: intrinsic and the common pathways; assay: Activated partial thromboplastin time (APTT) assay; assay type: biochemical, human
Protocol: (§3) Measurement of PT and APTT are as described in METHODS. PT and APTT ratios are calculated by dividing the clotting times in the presence of the indicated amounts of FL-TFPI or heparin by the clotting times in the absence of anticoagulants.
Ninety (90) μl of plasma were mixed with 10 μl of DB, FL-TFPI solution, or heparin solution in the Fibrometer well at 37° for 1 min. One hundred (100) μl of Dade's activated cephaloplastin reagent were added and the mixture was incubated for exactly 2 min. A calcium solution (100 μl of 25 mM CaCl2) was added and the time to clotting was recorded.
(§4) PT is a global test that primarily measures the functionality of the extrinsic and the common pathways; while APTT is a procedure which evaluates that of the intrinsic and the common pathways. The individual effects of heparin and FL-TFPI on PT and APTT were examined to determine the primary sites of their actions.

factor Xa = conditions: purified system; cited from earlier work
[3] = tested on: TF-induced clotting of TFPI-depleted plasma; assay: dPT assay in TFPI-depleted plasma (1:50 dilution of Simplastin); assay type: biochemical, human; conditions: for prolongation of clotting time: increasing concentrations, alone, 1:50 dilution of Simplastin
Protocol: FIG. 2B: Effects of CT-TFPI (.quadrature.), heparin (.circle-solid.), and sequential addition of CT-TFPI and heparin (.tangle-solidup.) on clotting time. dPTs were determined as described in METHODS using 1:50 dilution of Simplastin®.
Pooled plasma was prepared by mixing four (4) units of individual plasmas, and TFPI-depleted pooled plasma was obtained by passing the pooled plasma through a rabbit anti-human TFPI-Ig Sepharose® 4B column as described previously [(Wun, J. Biol. Chem. 265:16096-16101 (1990)].
as §1, §2
In the present work, FL-TFPI and CT-TFPI were separated by Mono S chromatography as described before [Wun, et al., Thromb. Haemost. 68, 54-59 (1992)], and the effects of heparin, FL-TFPI, or CT-TFPI alone, and combinations of heparin/FL-TFPI, and heparin/CT-TFPI were compared. FIGS. 2A and B show the results.

[4] = tested on: fibrin-dependent glomerulonephritis model; conditions: clinical dose of heparin; cited from earlier work
[5] = pH 7.4
Text: (§6) The solubility of non-glycosylated recombinant E. coli-derived FL-TFPI [Diaz-Collier, et al., Thromb.

[6] = Plasma levels of TFPI following bolus injection and constant infusion; assay type: in vivo, rabbit; conditions: infusion of 11.4 μg/kg/min FL-TFPI, 4 h; PCFIA
Protocol: For FL-TFPI, a bolus of 0.5 mg/kg was injected through the femoral vein followed by constant infusion of FL-TFPI (11.4 μg/kg/min).
For heparin/FL-TFPI, a bolus of preformed heparin (0.24 mg/kg)/FL-TFPI (0.19 mg/kg) complex was injected followed by constant infusion of heparin (5.4 μg/kg/min)/FL-TFPI (4.3 μg/kg/min) complex. Infusions were carried out over a 4-h period. Plasma levels of TFPI were measured by PCFIA assay.
For constant infusion studies, a bolus of FL-TFPI (0.5 mg/kg) or pre-formed heparin (0.24 mg/kg)/FL-TFPI (0.19 mg/kg) complex was injected through the femoral vein, followed by constant infusion of FL-TFPI (11.4 μg/kg/min)or heparin (5.4 μg/kg/min)/FL-TFPI (4.3 μg/kg/min) complex over a 4-hr period. Blood collection and plasma sample preparation were carried out as described above.
(§5) Plasma levels of TFPI antigen were measured by PCFIA assay. Functional TFPI activity in the plasma was also measured by dPT assay using each rabbit's own control plasma supplemented with known concentrations of FL-TFPI as a reference standard [Palmier, et al., Thromb. Haemost. 68, 33-36 (1992)]. Data from individual animals were fitted to the general bi-exponential equation: […]

[7] = tested on: extrinsic and the common pathways; assay: Prothrombin time (PT) assay; assay type: biochemical, human
Protocol: as §3
Ninety (90) μl of plasma were mixed with 10 μl of DB (dilution buffer containing 10 mM Tris/HCl, pH 7.4, 150 mM NaCl, 1 mM Na2 SO4, 1 mg/ml bovine serum albumin, and 0.02% NaN3), FL-TFPI solution, or heparin solution in the Fibrometer well at 37° for 1 min. Two hundred (200) μl of Simplastin® were then added and the time to clotting was recorded.
as §4

[8] = Pharmacokinetics following bolus injection in rabbits; assay type: in vivo, rabbit; conditions: for tα: bolus FL-TFPI 1.5 mg/kg or heparin 1.9 mg/kg/FL-TFPI 1.5 mg/kg; for % AUCα / % AUCβ / Clearence / Vd / tβ: bolus
Protocol: The pharmacokinetics study was carried out as described in METHODS. Rabbits were injected with a bolus of FL-TFPI (1.5 mg/kg) or heparin (1.9 mg/kg)/FL-TFPI (1.5 mg/kg) complex.
as §5
where C is the concentration of TFPI at time t, and A and B are the intercept values (to) extrapolated from a and b, the first order elimination rate constants.

[9] = cited from earlier work
[10] = Solubility of FL-TFPI and heparin/FL-TFPI complexes
Text: as §6

[11] = bolus injection, rabbits, PCFIA
[12] = individual rabbits #1-#3, PCFIA
[13] = up to 40 μg/ml N-acetyl heparin (FIG. 5)

heparin
prolongation of the clotting time ([1]; 10 μg/ml heparin alone): 26 s | clotting time ([1]; heparin beyond 1.25 μg/ml (FIG. 3)): progressively prolonged | clotting time ([1]; heparin up to 1.25 μg/ml (FIG. 3)): did not alter the clotting time | APTT ratio increase compared with PT ratio ([2]; FIG. 1): much greater increase of APTT ratio than PT ratio | primary site of action ([2]; from PT and APTT ratios): mainly inhibits the intrinsic pathway | rate of factor Xa inhibition by TFPI (factor Xa): enhances the rate of factor Xa inhibition by TFPI in a concentration dependent and biphasic manner | prolongation of clotting time [3]: increasingly prolong the clotting time in a moderate manner | beneficial effect on the disease process [4]: did not produce a beneficial effect on the disease process

FL-TFPI: Recombinant full-length (FL-) TFPI, tissue factor pathway inhibitor
solubility [5]: exceeds 5 mg/ml | steady state plasma level of TFPI [6]: ~ 2 μg/ml | prolongation of the clotting time ([1]; 2 μg/ml FL-TFPI alone): 58 s | clotting time ([1]; 2 μg/ml FL-TFPI alone (FIG. 3)): 78 s | clotting time ([1]; 2 μg/ml FL-TFPI alone (FIG. 5)): 90 s | clotting time ([1]; 2 μg/ml FL-TFPI alone (FIG. 6)): 82 s | PT ratio increase compared with APTT ratio ([7]; FIG. 1): much greater increase of the PT ratio than the APTT ratio | primary site of action ([7]; from PT and APTT ratios): primarily affects the extrinsic pathway | clearance of TFPI antigen (PCFIA) vs functional TFPI activity (dPT) ([8]; bolus injection, rabbits): closely matched | faster overall clearance relative to heparin/FL-TFPI complex ([8]; bolus injection, rabbits): ~ 2.6 fold | overall clearance ([8]; bolus injection, rabbits): 5.7 mL/min/kg | t1/2α [8, 11]: 1.4 min | t1/2β [8, 11]: 92 min | tα [8, 12]: 1.5 min and 1.7 min and 1.0 min | % AUCα [8, 12]: 9.4% and 7.2% and 7.9% | % AUCβ [8, 12]: 90.6% and 92.8% and 92.1% | Clearence [8, 12]: 5.9 mL/min/kg and 4.3 mL/min/kg and 6.8 mL/min/kg | Vd [8, 12]: 0.118 L/kg and 0.115 L/kg | tβ [8, 12]: 89 min and 96 min and 91 min | tα ([8]; mean of 3 rabbits (±SEM on separate line), PCFIA): 1.4 min | % AUCα ([8]; mean of 3 rabbits, PCFIA): 8.2% | % AUCβ ([8]; mean of 3 rabbits, PCFIA): 92% | Clearence ([8]; mean of 3 rabbits, PCFIA): 5.7 mL/min/kg | Vd ([8]; mean of 3 rabbits, PCFIA): 0.117 L/kg | tβ ([8]; mean of 3 rabbits, PCFIA): 92 min | % AUCβ ([8]; mean of 3 rabbits, PCFIA, listed as TFPI): 91.8% | potency in prolonging the clotting time compared with CT-TFPI ([3]; FIG. 2): much more potent in prolonging the clotting time than CT-TFPI; also recorded: far more potent than CT-TFPI in prolonging the TF-induced clotting time; also recorded: far more potent than CT-TFPI alone or in combination with heparin | prolongation of clotting time [3]: increasingly prolong the clotting time in a moderate manner | NaCl required for dissociation from heparin [9]: 0.6 to 1 M

N-acetyl heparin
clotting time [1, 13]: ~ 18 sec | clotting time (in words) [1, 13]: did not alter the clotting time

non-glycosylated recombinant E. coli-derived FL-TFPI: non-glycosylated recombinant E. coli-derived FL-TFPI
solubility ([10]; Dulbecco's phosphate-buffered saline, estimated): approximately 200 μg/ml | solubility ([10]; saline solutions, compared with glycosylated FL-TFPI): even lower

— patent publication US5849703A, “Pre-formed anticoagulant heparin/TFPI complexes” (G. D. Searle & Co., priority 1996, dated 1998)
